Laboratory results reported in the DeepSol protein solubility set.

Assay: soluble on expression in E. coli; label from the status in PepcDB or PDB records
With “GSDGDALLKPCKLGDMQCLSSATEQFLEKTSKGIPQYDIWPIDPLVVTSLDVIAPSDAGIVIRFKNLNITGLKNQQISDFQMDTKAKTVLLKTKADLHIVGDIVIELTEQSKSFTGLYTADTNVIGAVRYGYNLKNDDNGVQHFEVQPETFTCESIGEPKITLSSDLSSALEKDSGNNSLEPDMEPLKTLRQAAICKIAEACYISVVHNIRASAKILPASSFFENLN” the “soluble on expression in E. coli” value was “soluble”. With “GSGIMAASRPLSRFWEWGKNIVCVGRNYADHVREMRSAVLSEPVLFLKPSTAYAPEGSPILMPAYTRNLHHELELGVVMGKRCRAVPEAAAMDYVGGYALCLDMTARDVQDECKKKGLPWTLAKSFTASCPVSAFVPKEKIPDPHKLKLWLKVNGELRQEGETSSMIFSIPYIISYVSKIITLEEGDIILTGTPKGVGPVKENDEIEAGIHGLVSMTFKVEKPEY” the “soluble on expression in E. coli” value was “soluble”. With “GSHMASPTPAPSQSPIRRDAFSIIEAEEYNSTNSSTLQVIGTPNNGRGIGYIENGNTVTYSNIDFGSGATGFSATVATEVNTSIQIRSDSPTGTLLGTLYVSSTGSWNTYNTVSTNISKITGVHDIVLVFSGPVNVDNFIFSRSS” the “soluble on expression in E. coli” value was “soluble”. In the case of “GSHMASRTPKKLSNIALTKETRQSSTDYNGFSRLAVDGNKNGDYGHHSVTHTKEDSPSWWEIDLAQTEELEKLIIYNRTDAEIQRLSNFDIIIYDSNDYEVFTQHIDSLESNNLSIDLKGLKGKKVRISLRSAGIPLSLAEVEVYTYK”, the “soluble on expression in E. coli” value is reported as “soluble”. In the case of “GSHMDADGKLLTEGGENENLRKNASKKETSLFQGFKSYLPIAELAIENTERLNY”, the “soluble on expression in E. coli” value is reported as “soluble”. In the case of “GSHMHRVINHPYYFPFNGKQAEDYLRSKERGDFVIRQSSRGDDHLAITWKLDKDLFQHVDIQEMEKENPLAMGKVLVVEGQRYHDLDQIIVEYLQNKIRLLNE”, the “soluble on expression in E. coli” value is reported as “soluble”. With “GSHMKEDQVVAEEPGFQDEEESLFQDIDLLQKHGINVADIKKLKSVGICTIKGIQMTTRRALCNVKGLSEAKVDKIKEAANKLIEPGFLTAFEYSEKRKMVFHITTGSQEFDKLLGGGIESMAITEAFGEFRTGKTQLSHTLCVTAQLPGAGGYPGGKIIFIDTENTFRPDRLRDIADRFNVDHDAVLDNVLYARAYTSEHQMELLDYVAAKFHEEAGIFKLLIIDSIMALFRVDFSGRGELAERQQKLAQMLSRLQKISEEYNVAVFVTNQMTADPGATMTFQADPKKPIGGHILAHASTTRISLRKGRGELRIAKIYDSPEMPENEATFAITAGGIGDAKE” the “soluble on expression in E. coli” value was “soluble”. For “GSHMLESSAEESLAYREDDLRGRLGKVITAVPVDGFGEVVIEGIGGTISKSAVSFDNQQISYGTTVLVVDINNGVLSVTPHEPI”, the “soluble on expression in E. coli” value was “soluble”. For “GSHMLKGQEFAPSHQQVYAPLRADGDKPRAHLTVVRQTPTQHFKNQFPALHWEHELGLAFTKNRMNYTNKFLLIPESGDYFIYSQVTFRGMTSESSEIRQAGRPNKPDSITVVITKVTDSYPEPTQLLMGTKSVSEVGSNWFQPIYLGAMFSLQEGDKLMVNVSDISLVDYTKEDKTFFGAFLL”, the “soluble on expression in E. coli” value was “soluble”. With “GSHMPAPHGGILQDLIARDALKKNELLSEAQSSDILVWNLTPRQLCDIELILNGGFSPLTGFLNENDYSSVVTDSRLADGTLWTIPITLDVDEAFANQIKPDTRIALFQDDEIPIAILTVQDVYKPNKTIEAEKVFRGDPEHPAISYLFNVAGDYYVGGSLEAIQLPQHYDYPGLRKTPAQLRLEFQSRQWDRVVAFQTRNPMHRAHRELTVRAAREANAKVLIHPVVGLTKPGDIDHHTRVRVYQEIIKRYPNGIAFLSLLPLAMRMSGDREAVWHAIIRKNYGASHFIVGRDHAGPGKNSKGVDFYGPYDAQELVESYKHELDIEVVPFRMVTYLPDEDRYAPIDQIDTTKTRTLNISGTELRRRLRVGGEIPEWFSYPEVVKILRESNPPRPKQGFSIVLGNSLTVSREQLSIALLSTFLQFGGGRYYKIFEHNNKTELLSLIQDFIGSGSGLIIPNQWEDDKDSVVGKQNVYLLDTSSSADIQLESADEPISHIVQKVVLFLEDNGFFVF” the “soluble on expression in E. coli” value was “soluble”. For “GSHMPLSSENKQKLQKQVEFYFSDVNVQRDIFLKGKMAENAEGFVSLETLLTFKRVNSVTTDVKEVVEAIRPSEKLVLSEDGLMVRRRDPLP”, the “soluble on expression in E. coli” value was “soluble”. In the case of “GSHMQPMQAMKIERGTILTQPGVFGVFTMFKLRPDWNKVPAMERKGAAEEVKKLIEKHKDNVLVDLYLTRGLETNSDFFFRINAYDLAKAQTFMREFRSTTIGKNADVFETLVGVTKPLNYISKDKSPGLNAGLSSATYSGPAPRYVIVIPVKKNAEWWNMSPEERLKEMEVHTTPTLAYLVNVKRKLYHSTGLDDTDFITYFETDDLTAFNNLMLSLAQVKENKFHVRWGSPTTLGTIHSPEDVIKALAD”, the “soluble on expression in E. coli” value is reported as “soluble”. For “GSHMRTIIALETHDVRFPTSRELDGSDAMNPDPDYSAAYVVLRTDGAEDLAGYGLVFTIGRGNDVQTAAVAALAEHVVGLSVDKVIADLGAFARRLTNDSQLRWLGPEKGVMHMAIGAVINAAWDLAARAANKPLWRFIAELTPEQLVDTIDFRYLSDALTRDEALAILRDAQPQRAARTATLIEQGYPAYTTSPGWLGYSDEKLVRLAKEAVADGFRTIKLKVGANVQDDIRRCRLARAAIGPDIAMAVDANQRWDVGPAIDWMRQLAEFDIAWIEEPTSPDDVLGHAAIRQGITPVPVSTGEHTQNRVVFKQLLQAGAVDLIQIDAARVGGVNENLAILLLAAKFGVRVFPHAGGVGLCELVQHLAMADFVAITGKMEDRAIEFVDHLHQHFLDPVRIQHGRYLAPEVPGFSAEMHPASIAEFSYPDGRFWVEDLAASKAKA”, the “soluble on expression in E. coli” value was “soluble”. For “GSKATDSVLQGSEGNKVKRTSCMYGANCYRKNPVHFQHFSHPGDSDYGGVQIVGQDETDDRPECPYGPSCYRKNPQHKIEYRHNTLPVRNV”, the “soluble on expression in E. coli” value was “soluble”. In the case of “GSLNITENESISTAVIDAINSGATLKDINAIPDDMMDDIYSYAYDFYNKGRIEEAEVFFRFLCIYDFYNVDYIMGLAAIYQIKEQFQQAADLYAVAFALGKNDYTPVFHTGQCQLRLKAPLKAKECFELVIQHSNDEKLKIKAQSYLDAIQ”, the “soluble on expression in E. coli” value is reported as “soluble”. For “GSMAGEDVGAPPDHLWVHQEGIYRDEYQRTWVAVVEEETSFLRARVQQIQVPLGDAARPSHLLTSQLPLMWQLYPEERYMDNNSRLWQIQHHLMVRGVQELLLKLLPDDRSPGIHRD”, the “soluble on expression in E. coli” value was “soluble”. For “GSMLISHSDMNQQLKSAGIGFNATELHGFLSGLLCGGLKDQSWLPLLYQFSNDNHAYPTGLVQPVTELYEQISQTLSDVEGFTFELGLTEDENVFTQADSLSDWANQFLLGIGLAQPELAKEKGEIGEAVDDLQDICQLGYDEDDNEEELAEALEEIIEYVRTIAMLFYSHFNEGEIESKPVLH”, the “soluble on expression in E. coli” value was “soluble”. In the case of “GSMQRASRLKRELHMLATEPPPGITCWQDKDQMDDLRAQILGGANTPYEKGVFKLEVIIPERYPFEPPQIRFLTPIYHPNIDSAGRICLDVLKLPPKGAWRPSLNIATVLTSIQLLMSEPNPDDPLMADISSEFKYNKPAFLKNARQWTEKHARQKQKADEEEMLDNLP”, the “soluble on expression in E. coli” value is reported as “soluble”. For “GSMTEIALIGNPNSGKTSLFNLITGHNQRVGNWPGVTVERKSGLVKKNKDLEIQDLPGIYSMSPYSPEEKVARDYLLSQRADSILNVVDATNLERNLYLTTQLIETGIPVTIALNMIDVLDGQGKKINVDKLSYHLGVPVVATSALKQTGVDQVVKKAAHTTTSTVGDLAFPIYDDRLEAAISQILEVLGNSVPQRSARFYAIKLFEQDSLVEAELDLSQFQRKEIEDIIRITEEIFTEDAESIVINERYAFIERVCQMAESHTEDFALTLS”, the “soluble on expression in E. coli” value was “soluble”. With “GSMTGKSVKDVDRYQAVLANLLLEEDNKFCADCQSKGPRWASWNIGVFICIRCAGIHRNLGVHISRVKSVNLDQWTQEQIQCMQEMGNGKANRLYEAYLPETFRRPQIDPAVEGFIRDKYEKKKYMDRSLDINA” the “soluble on expression in E. coli” value was “soluble”. For “GSPALDTGTTEEDRLKIDVIDWLVFDPAQRAEALKQGNAIMRKFLASKKHEAAKEVFVKIPQDSIAEIYNQCEEQGMESPLPAEDDNAIREHLCIRAYLEAHETFNEWFKHMNSVPGGSGGSWKGHLDALTADVKEKMYNVLLFVDGGWMVDVREDAKEDHERTHQMVLLRKLCLPMLCFLLHTILHSTGQYQECLQLADMVSSERHKLYLVFSKEELRKLLQKLRESSLMLLDQGLDPLGYEIQL”, the “soluble on expression in E. coli” value was “soluble”. In the case of “GSPGISGGGGGILVGSKMAASIRERQTVALKRMLNFNVPHVKNSPGEPVWKVLIYDRFGQDIISPLLSVKELRDMGITLHLLLHSDRDPIRDVPAVYFVMPTEENIDRLCQDLRNQLYESYYLNFISAISRSKLEDIANAALAANAVTQVAKVFDQYLN”, the “soluble on expression in E. coli” value is reported as “soluble”. For “GSRATVFKLGLFKSLFLCSFHDITRLFKNDKTTNQQWVLAVFGLAEVFFEASFELLKKQCSFLQMQKRSHEGGTCAVYLICFNTAKSRETVRNLMANMLNVREECLMLQPPKIRGLSAALFWFKSSLSPATLKHGALPEWIRAQTTLN”, the “soluble on expression in E. coli” value was “soluble”. In the case of “GSSGSSGMGNSKSGALSKEILEELQLNTKFSEEELCSWYQSFLKDCPTGRITQQQFQSIYAKFFPDTDPKAYAQHVFRSFDSNLDGTLDFKEYVIALHMTTAGKTNQKLEWAFSLYDVDGNGTISKNEVLEIVMAIFKMITPEDVKLLPDDENTPEKRAEKIWKYFGKNDDDKLTEKEFIEGTLANKEILRLIQFEPQKVKEKMKNA”, the “soluble on expression in E. coli” value is reported as “soluble”. In the case of “GSSHHHHHHSSGLVPRGSHMQTTNAVDLGNPDLYTTLERHARWRELAAEDAMVWSDPGSSPSGFWSVFSHRACAAVLAPSAPLTSEYGMMIGFDRDHPDNSGGRMMVVSEHEQHRKLRKLVGPLLSRAAARKLAERVRIEVGDVLGRVLDGEVCDAATAIGPRIPAAVVCEILGVPAEDEDMLIDLTNHAFGGEDELFDGMTPRQAHTEILVYFDELITARRKEPGDDLVSTLVTDDDLTIDDVLLNCDNVLIGGNETTRHAITGAVHALATVPGLLTALRDGSADVDTVVEEVLRWTSPAMHVLRVTTADVTINGRDLPSGTPVVAWLPAANRDPAEFDDPDTFLPGRKPNRHITFGHGMHHCLGSALARIELSVVLRVLAERVSRVDLEREPAWLRAIVVQGYRELPVRFTGR”, the “soluble on expression in E. coli” value is reported as “soluble”. With “GVACKPKEKPSSATSLTDDALMDTVQRRTFNYFWDAAEPNSGLARERYHMDGEYPAGGPEIVTSGGSGFGIMAILAGIDRGYVSREEGLRRMEKIVGFLEKADRFKGAYPHWWNGETGHVQPFGQKDNGGDLVETAFLMQGLLAVHQYYAEGSAEEKKLAGRIDKLWREVDWNWYRHGGQNVLYWHWSPEYGWEMNFPVHGYNECLIMYILAAASPTHGVPAAVYHEGWAQNGAIVSPHKVEGIELHLRYQGGEAGPLFWAQYSFLGLDPVGLKDEYCPSYFNEMRNLTLVNREYCIRNPKHYKGYGPDCWGLTASYSVDGYAAHGPLERDDRGVISPTAALSSIVYTPDQSLQVMHHLYEMGDKVFGPYGFYDAFSETADWYPKRYLAIDQGPIAVMIENYRTGLLWKLFMSHPDVQNGLKKLGFNVKK” the “soluble on expression in E. coli” value was “soluble”. For “GVRFAFGPTVDFHFGENYAFSTGAWYLSSRAGLSQSVPGLTYKEIVSLQSVQIPVTFKAYTNEIATNMKLYFQLGGLATFNFYEKFKESTPSNSSYDDKYNVFDVSLYVGAGVSYKIGESNALFGGFYYSRGLMNMLDGSTIPGTSDRYKKAAKYNNDLVGLEVGITF”, the “soluble on expression in E. coli” value was “not soluble”. For “GYALTEGEDYLVLDKPIPQEQSGKIEVLEFFGYFCVHCHHFDPLLLKLGKALPSDAYLRTEHVVWQPEMLGLARMAAAVNLSGLKYQANPAVFKAVYEQKIRLENRSVAGKWALSQKGFDGKKLMRAYDSPEAAAAALKMQKLTEQYRIDSTPTVIVGGKYRVIFNNGFDGGVHTIKELVAKVREERKRQTPAVQK”, the “soluble on expression in E. coli” value was “soluble”.
